# Variants at the floor of the assay were thinned out.
# B1: TPR 5TU (parent)
# chain: GGAUCUUCUCGAUCUAACAAAAAAGACAAAUCUGCCACAAAGCUUGAGAGCAUCUUCGGAUGCAGAGGCGGCAGCCUUCGGUGGCGCGAUAGCGCCAACGUUCUCAACUAUGACACGCAAAACGCGUGCUCCGUUGAAUGGAGUUUAUCAUG
# Variants of: B1
# Test: polymerase ribozyme fitness, log enrichment relative to wild type (log ratio); higher = more active; in vitro selection for triplet polymerase activity
# How it was run: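 For each subunit of a heterodimeric triplet polymerase ribozyme, a mutant library was built by PCR and transcribed, then taken through a single in vitro selection round in triplicate. Selection involved annealing to a biotinylated primer, the partner subunit and triplets, incubation frozen at −7 °C, gel excision of extended constructs, capture on streptavidin beads and RT-PCR. Genotypes were retained after Illumina sequencing of inputs and outputs only with ≥10 input reads and ≥1 read in each output. Fitness is defined as the logarithm of a genotype's enrichment relative to wild-type enrichment, using inverse-variance-weighted averages across replicates, with the logarithm taken to base 2.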
row,Variant,polymerase ribozyme fitness (log ratio)
1,A20G U82A C96G,0.0125
2,A20C C149G,-2.96
3,A20G C36U C85G,-4.17
4,A21G A29C G88A G92C C96G U102G A107U,≤ -4.2
5,A19U G62A C96G,-1.02
6,A21G G84A A137C,-3.28
7,A20C,-0.413
8,A20G,-0.287
9,A20U,-1.18
10,A21C C87U A89C A98G G112U,≤ -4.2
11,A20C A24U C57U,-0.111
12,A21C A39U C95G A113U C149U A150G,≤ -4.2
13,A19U U31C C132G,-2.74
14,A19U G25U C38G A52C C75U C118G C131A A142U,≤ -4.2
15,A19U G62A A73U A110G A121U,≤ -4.2
16,A20U C38U C85A G86U,≤ -4.2
17,A20U A24U G58C C96G A119G,≤ -4.2
18,A20C A40U C95U,-0.74
19,A21U G50A C63U C75U A97U,-1.25
20,A21U C35U U56A C96A A142U,-2.21
21,A21C G50C,-1.92
22,A20U G141C,-1.4
23,A20G C32U G84U C93G,-4.2
24,A21C G25C C36G C93G A115U U134A U146A,≤ -4.2

row,Variant,polymerase ribozyme fitness (log ratio)
1,A20U A40C G59A U77C U101C C108A U146G,≤ -4.2
2,A21G A49C G84A G92U A97U A138G,≤ -4.2
3,A20U C85U,-1.3
4,A20G U78G C93U A110U U135G A137G,≤ -4.2
5,A20U A30U A39U G62A G68A G140U,≤ -4.2
6,A21C C51U G59C G140A A142U,≤ -4.2
7,A20C C54A G84U C116U,-3.08
8,A21C A41U C85U C95U,-1.34
9,A21U G83A,-1.45
10,A21G G42A C93U A110C,≤ -4.2
11,A20C G48U G100C C116A,≤ -4.2
12,A21G C57U C93U G136C,-4.04
13,A20U A41U G59A G67A G86C,≤ -4.2
14,A21G A37G C95U A115G G143C,-3.82
15,A20G C54A G68A C87U,≤ -4.2
16,A21C C85G C87U U145G,-3.2
17,A21C C85G C114U,-3.13
18,A21G C36G U53C,-3.97
19,A20G G83U A89G C99U G141A U146A,≤ -4.2
20,A20G G140U,-3.41
21,A20U G84U C108U,≤ -4.2
22,A21G G25U U56A C85U G94U C123U,-2.71
23,A20U G84A G124A A147G,-2.53
24,A21U A24G U61A G81U,≤ -4.2

row,Variant,polymerase ribozyme fitness (log ratio)
1,A21C G34U U55A C132G U135A,≤ -4.2
2,A21C A47C A60G C93A,-1.98
3,A20U A49G,-1.2
4,A20U C57G G88U A89U,≤ -4.2
5,A20U A52C C93U,-3.12
6,A20U C69A,-2.18
7,A20C C38G,-1.37
8,A21G A52G U53A C54U C87U C95A G136A G140U,≤ -4.2
9,A21G U31A A41G C51U C87A C118A U139A C149G,≤ -4.2
10,A20C C51G C95G C149U,≤ -4.2
11,A21G A138G,-3.38
12,A20C G50C C54U G58C G62A C103G C125U A142C,≤ -4.2
13,A20U U31C C116U A121U A150C,-3.57
14,A20G A91G,-2.54
15,A21C C43A U45G G48C A73G G86U C96G A97C G140U,≤ -4.2
16,A20C C85A G126C,0.52
17,A20U G88C,-3.85
18,A21U C87A G117C A137C A142U,≤ -4.2
19,A21U A22U G46A G48C U56A G70C G83U G124A,≤ -4.2
20,A20G A91U G124U,≤ -4.2
21,A20U C27U G46C C95U,-3.76
22,A20C G86C C87U G88A C95G,≤ -4.2
23,A21G A24U G50A C57A C87G C93G A110U A121U,-4.06
24,A21C C54A C95U C114G G136U,≤ -4.2

row,Variant,polymerase ribozyme fitness (log ratio)
1,A21U C108U,-3.78
2,A21U A39G A52C G58A G80A G83U C85A C93A,≤ -4.2
3,A20U U55G C96U U134G U144G,-3.67
4,A20U C32U U77G A142U,≤ -4.2
5,A20C C38U C95U A122C U134C,-1.35
6,A19U C69A A98U G140C,≤ -4.2
7,A19U G80U,-0.442
8,A19U U104A,-0.0348
9,A19U U53G U55A C85G,≤ -4.2
10,A19U G59A G88U A89G G94U A113G,≤ -4.2
11,A21C A52C C57U A64C A66C G71U A91U G100A C103U U127G,≤ -4.2
12,A20G U53G G74A C93A,≤ -4.2
13,A21U A23U,≤ -4.2
14,A21U A52G G92A G124C,-3.99
15,A21U G34U C54G U61G C108G G140A U145C,-4.13
16,A20U A26U A40C U44A C105G C114U C116A,≤ -4.2
17,A20U C35U U144C,-2.73
18,A20U C79U,-3.19
19,A21C C125A,0.331
20,A20G G94A C105G,-2.04
21,A21G A89G C99U,-1.34
22,A20U C43U C96U C114U G141C,≤ -4.2
23,A19U G92U A150C,-2.67
24,A19U U31A A41G C87G G124U,-4.17

row,Variant,polymerase ribozyme fitness (log ratio)
1,A21C G58A C93U U102G C131G,≤ -4.2
2,A21G G59C U102G G124A,-3.04
3,A20U A73G U104G A115G,≤ -4.2
4,A20U A26U G83C,≤ -4.2
5,A20G C43U U55A C85U C96G A98U A107G,≤ -4.2
6,A21G A26G C38G C72U C87G A89U A150G,≤ -4.2
7,A21U C32U A52G C85A,-4.08
8,A20U A41U,-2.17
9,A20U A41C,-2.09
10,A21G C27U C38A C93G U101A U146C,≤ -4.2
11,A20G A24U C35U G42C C79A C85G G88U A147G G152A,≤ -4.2
12,A21C A22U U53A C85A G124A,-2.42
13,A20U A23C C72U G88C A91G C99U G140U,≤ -4.2
14,A21G U55G C79G G94A C99A,≤ -4.2
15,A20U A22U G67C C79U C99G C118U,≤ -4.2
16,A20U A73G C85A C93A G141C,≤ -4.2
17,A20U G58A G81A,-0.836
18,A20U A24C A49C G71A C72A C93U C103G U109C,≤ -4.2
19,A21C C57A C93G C99G C118U U139A U144A A150C,≤ -4.2
20,A21C A24G A52G G67A C85A G141C,≤ -4.2
21,A21U C93U,-0.752
22,A21G G59C C85U U102C C116G U134A,-4.09
23,A20U U78A C95U,≤ -4.2
24,A21U A49G G84U U145G,-2.57

row,Variant,polymerase ribozyme fitness (log ratio)
1,A20G A41C C54G G83U C87G A98C C116G C132U,≤ -4.2
2,A21U C35U G58A G68A A115G C118U G141A,≤ -4.2
3,A21G C75U,0.894
4,A21G A49U C57G A150G,≤ -4.2
5,A20C A40C C103U U145C,-0.185
6,A20C G136C,-4.19
7,A20C U55A G71A C96U,-3.43
8,A21U G58C C76G C87U C105A A119U,≤ -4.2
9,A20U U61A C75U G81U C99G U148G,≤ -4.2
10,A19U C85U A107G,≤ -4.2
11,A20C A41U G50A U90A C93U,≤ -4.2
12,A19U C96U C125G,-0.589
13,A21C A24G A28G A29U G71C G83A G124U,≤ -4.2
14,A19U U33G A40C C87U C93U C103A,≤ -4.2
15,A21C A47C C96A G133C,-1.54
16,A21U A26C A52C C54U G62A G68A G83C U139G,≤ -4.2
17,A21C C57U C87G G126C A137C,≤ -4.2
18,A20U C51U C79A C93A A97U U148G,≤ -4.2
19,A21G U56A G67C U77G G88A C99A U109G,≤ -4.2
20,A20U A21U A41C A47U G58U U104A,-2.77
21,A20G G67U,-2.82
22,A21U A29C A89C U130C G140U G141A,≤ -4.2
23,A21C C36U C57A C95U A97G A98U C125U,-3.21
24,A21C A41C C51U C85A,-3.05

row,Variant,polymerase ribozyme fitness (log ratio)
1,A21G C69G U82A C87U,-1.28
2,A20U G92U U104G,-1.82
3,A19U U55A C76G C93A,≤ -4.2
4,A21U C35A A106U A119U A138C,≤ -4.2
5,A21G G74A A89U G92U,-3.57
6,A20U C93U,-1.76
7,A21C U56G G62C U101G,-3.54
8,A21C C87A G141C,≤ -4.2
9,A20C U53C G59A G136C,-3.81
10,A20C A40C U56G C96G A121U,-1.15
11,A21G A52G C87U U90G A106G A107G,≤ -4.2
12,A19U C96U A120G A121C,-0.837
13,A21C C27A C43U A89U G92U G126A U145A U151C,≤ -4.2
14,A20U A91U A115U,-4.17
15,A20G G126A G136A,0.15
16,A20U C87U G88C U101A U146G,≤ -4.2
17,A21G C54A,-0.617
18,A20G C38U G88C C96A,≤ -4.2
19,A21C A24C A52C C79A C93U A150U G152C,≤ -4.2
20,A20U A29G C43U C75U U77G G94C U109G A113U,≤ -4.2
21,A21G A22U U53A C85G C132G,≤ -4.2
22,A21C G25C U53A G74A C87G,≤ -4.2
23,A20G G48A C69A A98U A142G,-3.3

# Source: the RNAGym collection of RNA variant scans (doi:10.1073/pnas.2313332121)
